PMC4409540 (Nature, 2015)

Molecular target: the molecule itself
Test: cryo-EM structure

B1: MBP-tagged human TRPA1 (full-length) (natural protein, UniProt O75762 1-1119, looked up)
chain: MKRSLRKMWRPGEKKEPQGVVYEDVPDDTEDFKESLKVVFEGSAYGLQNFNKQKKLKRCDDMDTFFLHYAAAEGQIELMEKITRDSSLEVLHEMDDYGNTPLHCAVEKNQIESVKFLLSRGANPNLRNFNMMAPLHIAVQGMNNEVMKVLLEHRTIDVNLEGENGNTAVIIACTTNNSEALQILLKKGAKPCKSNKWGCFPIHQAAFSGSKECMEIILRFGEEHGYSRQLHINFMNNGKATPLHLAVQNGDLEMIKMCLDNGAQIDPVEKGRCTAIHFAATQGATEIVKLMISSYSGSVDIVNTTDGCHETMLHRASLFDHHELADYLISVGADINKIDSEGRSPLILATASASWNIVNLLLSKGAQVDIKDNFGRNFLHLTVQQPYGLKNLRPEFMQMQQIKELVMDEDNDGCTPLHYACRQGGPGSVNNLLGFNVSIHSKSKDKKSPLHFAASYGRINTCQRLLQDISDTRLLNEGDLHGMTPLHLAAKNGHDKVVQLLLKKGALFLSDHNGWTALHHASMGGYTQTMKVILDTNLKCTDRLDEDGNTALHFAAREGHAKAVALLLSHNADIVLNKQQASFLHLALHNKRKEVVLTIIRSKRWDECLKIFSHNSPGNKCPITEMIEYLPECMKVLLDFCMLHSTEDKSCRDYYIEYNFKYLQCPLEFTKKTPTQDVIYEPLTALNAMVQNNRIELLNHPVCKEYLLMKWLAYGFRAHMMNLGSYCLGLIPMTILVVNIKPGMAFNSTGIINETSDHSEILDTTNSYLIKTCMILVFLSSIFGYCKEAGQIFQQKRNYFMDISNVLEWIIYTTGIIFVLPLFVEIPAHLQWQCGAIAVYFYWMNFLLYLQRFENCGIFIVMLEVILKTLLRSTVVFIFLLLAFGLSFYILLNLQDPFSSPLLSIIQTFSMMLGDINYRESFLEPYLRNELAHPVLSFAQLVSFTIFVPIVLMNLLIGLAVGDIAEVQKHASLKRIAMQVELHTSLEKKLPLWFLRKVDQKSTIVYPNKPRSGGMLFHIFCFLFCTGEIRQEIPNADKSLEMEILKQKYRLKDLTFLLEKQHELIKLIIQKMEIISETEDDDSHCSFQDRFKKEQMEQRNSRWNTVLRAVKAKTHHLEP
- stoichiometry N: 4
